According to patent US20240026036A1:

Biological target: Recombinant human TNFα (R&D Systems) (human) (UniProt P01375)
Sequence (P01375 77-233 limits assumed): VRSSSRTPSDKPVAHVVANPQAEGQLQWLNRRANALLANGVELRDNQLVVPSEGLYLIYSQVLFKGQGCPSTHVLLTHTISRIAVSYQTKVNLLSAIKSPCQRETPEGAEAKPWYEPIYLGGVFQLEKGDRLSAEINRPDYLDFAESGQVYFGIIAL

Substance: etanercept (Fc fusion)
- IC50, inhibition of TNFα-induced Caspase 3 activity in U937 cells: 0.144 nM
